Laboratory results as given in article PMC10899789, “Flexible structural arrangement and DNA-binding properties of protein p6 from Bacillus subtillis phage φ29” (Nucleic Acids Research, 2024).

B1: Full-length protein p6 (wt) of Bacillus subtilis bacteriophage φ29 (natural protein, UniProt P03685 1-104, looked up)
chain: MAKMMQREITKTTVNVAKMVMVDGEVQVEQLPSETFVGNLTMEQAQWRMKRKYKGEPVQVVSVEPNTEVYELPVEKFLEVATVRVEKDEDQEEQTEAPEEQVAE
notes: numbers count on: the traditional numbering of φ29 p6, where the second residue (Ala) is position 1 because the initial Met is removed in vivo; about 11.8 kDa as printed; also called wt p6; φ29 protein p6; source: produced and purified as previously described (23)
B2: p6CΔ20 (residues 1–83), C-terminal deletion mutant of φ29 protein p6 (domain or fragment)
chain: AKMMQREITKTTVNVAKMVMVDGEVQVEQLPSETFVGNLTMEQAQWRMKRKYKGEPVQVVSVEPNTEVYELPVEKFLEVATVR

Molecular target: the molecule itself
Test: AUC; sedimentation velocity, protein alone, 48 000 rpm, 20°C, 50 mM Tris-HCl pH 7.5, 10 mM MgCl2, 50 mM NaCl; 2.5-320 μM protein; isotherms of weight-average sedimentation coefficients fitted to a monomer-dimer self-association model (SEDPHAT); dimer to monomers

Row | Protein | Kd [µM]
1 | B1 | 11.4
2 | B2 | 47
